What was measured:
[1] = target: T1, delta PKC-annexin V complex (Cricetulus griseus, UniProt A0A8C2N0P5+G3I5A4); assay: Dissociation of delta PKC-annexin V complex in CHO cells; type: cell-based; conditions: CHO cells pretreated with the agent, then 10 nM PMA, FIG. 7
T1 construct: endogenous in cells; host or cells: CHO cells
Method: To determine the requirements for complex disassociation and subsequent translocation, PMA-induced formation of the delta PKC-annexin V complex was conducted under energetically limiting conditions caused by ATP depletion using 2-deoxyglucose (Kondo, T. et al., J. Lab. Clin. Med., 94:617-23 (1979)), and with cytoskeletal perturbations by pretreatment with actin […] agent cytochalasin D or microtubule-destabilizing agent nocodazole.
CHO cells were pretreated with one of the following: (1) 2-deoxyglucose (20 mM) for 4 hours in a glucose-free buffer; (2) nocodazole (10 μM) for 2 hours; or (3) cytochalasin D (2 μM) for 1 hour. The cells were then treated with phorbol myristate acetate (PMA; 10 nM) for times of between 30 seconds to 5 minutes. After the lapsed time, the cells were washed with cold PBS, and homogenized on ice with trituration in homogenization buffer (20 mM Tris pH 7.4, 2 mM EDTA, 10 mM EGTA, 0.25M sucrose, 12 mM β-mercaptoethanol, and protease inhibitor cocktail (Sigma), 0.1% formaldehyde. After 30 min at 4° C., the lysates were quenched with 0.14M glycine for 20 min at 4° C., and samples spun at 14K rpm at 4° C. The supernatant was incubated with 1 μg anti-delta PKC antibody (Santa Cruz Biotechnology, Inc., Santa Cruz, Calif.) for 1 hour, then with proteinG beads (Invitrogen Corporation) for 3 hours at 4° C. The beads where then washed with wash buffer (20 mM Tris pH 7.5, 2 mM EDTA, 100 mM NaCl, 12 mM β-mercaptoethanol, 0.1% Triton), and separated on 7.5% SDS-PAGE, transferred to nitrocellulose, and probed with anti-annexin V (Santa Cruz Biotechnology, Inc., Santa Cruz, Calif.), followed by visualization by ECL Western blotting.

[2] = target: T2, annexin V and delta PKC interaction (Homo sapiens, UniProt Q05655); assay: Cross-linking immuno-precipitation of delta PKC probed with anti-annexin V in cardiac myocytes; type: cell-based
T2 construct: endogenous in cells; host or cells: cardiomyocytes
T2 sequence (Q05655 whole entry): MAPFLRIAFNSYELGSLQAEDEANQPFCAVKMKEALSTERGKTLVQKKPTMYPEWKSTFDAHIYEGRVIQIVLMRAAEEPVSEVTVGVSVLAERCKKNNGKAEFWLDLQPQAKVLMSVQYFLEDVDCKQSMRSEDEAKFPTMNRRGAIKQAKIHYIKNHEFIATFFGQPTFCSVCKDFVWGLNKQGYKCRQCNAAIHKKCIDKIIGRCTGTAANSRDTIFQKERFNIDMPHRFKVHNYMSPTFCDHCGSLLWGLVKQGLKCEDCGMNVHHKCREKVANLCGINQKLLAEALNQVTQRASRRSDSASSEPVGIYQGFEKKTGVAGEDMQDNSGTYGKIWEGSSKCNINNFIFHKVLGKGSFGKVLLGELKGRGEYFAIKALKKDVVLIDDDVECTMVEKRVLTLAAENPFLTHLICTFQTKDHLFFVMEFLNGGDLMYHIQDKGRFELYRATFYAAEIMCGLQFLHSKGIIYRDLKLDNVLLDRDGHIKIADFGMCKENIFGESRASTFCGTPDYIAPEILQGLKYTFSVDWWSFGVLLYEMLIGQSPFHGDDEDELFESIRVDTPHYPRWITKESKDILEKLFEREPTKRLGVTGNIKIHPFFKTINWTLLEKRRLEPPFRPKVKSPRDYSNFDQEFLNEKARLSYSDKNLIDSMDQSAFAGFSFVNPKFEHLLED
Method: Example 4 describes a study where cardiac myocytes were stimulated with a selected agent and then immuno-precipitated with anti-delta PKC after cross-linking. The cell lysates were then probed with anti-annexin V and visualized with ECL Western blotting. […] The stimulation agent was applied to the cells for times of between 30 seconds to 20 minutes, prior to lysing.
Cardiomyocytes were treated with phorbol 12-myristate 13-acetate (PMA; 10 nM), hydrogen peroxide (H2O2; 5 mM), JTV-519, or delta V1-1 peptide (1 μM) and JTV-519 (1 μM), for times of between 30 seconds to 5 minutes. After the lapsed time, the cells were washed with cold PBS, and homogenized on ice with trituration in homogenization buffer (20 mM Tris pH 7.4, 2 mM EDTA, 10 mM EGTA, 0.25M sucrose, 12 mM O-mercaptoethanol, and protease inhibitor cocktail (Sigma), 0.1% formaldehyde. After 30 min at 4° C., the lysates were quenched with 0.14M glycine for 20 min at 4° C., and samples spun at 14K rpm at 4° C. The supernatant was incubated with 1 μg anti-delta PKC antibody (Santa Cruz Biotechnology, Inc., Santa Cruz, Calif.) for 1 hour, then with proteinG beads (Invitrogen Corporation) for 3 hours at 4° C. The beads where then washed with wash buffer (20 mM Tris pH 7.5, 2 mM EDTA, 100 mM NaCl, 12 mM β-mercaptoethanol, 0.1% Triton), and separated on 7.5% SDS-PAGE, transferred to nitrocellulose, and probed with anti-annexin V (Santa Cruz Biotechnology, Inc., Santa Cruz, Calif.), followed by visualization by ECL Western blotting.

[3] = target: T3, delta PKC/annexin V interaction (Cricetulus griseus, UniProt A0A8C2N0P5); assay: Cross-linking co-immunoprecipitation of annexin V and delta PKC in CHO cells; type: cell-based
T3 construct: endogenous in cells; host or cells: CHO cells
T3 sequence (A0A8C2N0P5 1-676): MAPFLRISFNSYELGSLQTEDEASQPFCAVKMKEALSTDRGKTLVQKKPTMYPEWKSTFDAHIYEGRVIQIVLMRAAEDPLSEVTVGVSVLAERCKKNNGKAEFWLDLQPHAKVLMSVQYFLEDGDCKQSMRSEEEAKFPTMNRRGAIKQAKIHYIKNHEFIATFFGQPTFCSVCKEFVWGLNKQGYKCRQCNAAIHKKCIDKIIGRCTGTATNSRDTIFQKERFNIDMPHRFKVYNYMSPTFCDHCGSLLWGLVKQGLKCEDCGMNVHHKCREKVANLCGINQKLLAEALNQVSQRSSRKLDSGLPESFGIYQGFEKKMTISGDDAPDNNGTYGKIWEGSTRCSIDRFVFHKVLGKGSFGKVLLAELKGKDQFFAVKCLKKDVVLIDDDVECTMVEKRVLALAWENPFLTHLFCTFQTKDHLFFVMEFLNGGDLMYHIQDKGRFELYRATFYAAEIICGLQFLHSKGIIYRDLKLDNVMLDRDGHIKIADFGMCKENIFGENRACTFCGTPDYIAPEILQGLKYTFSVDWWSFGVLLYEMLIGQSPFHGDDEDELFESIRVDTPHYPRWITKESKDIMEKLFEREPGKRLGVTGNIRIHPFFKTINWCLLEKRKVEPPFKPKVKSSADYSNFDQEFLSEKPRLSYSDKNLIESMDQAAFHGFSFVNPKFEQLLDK
T3 sequence (G3I5A4 1-321 partner): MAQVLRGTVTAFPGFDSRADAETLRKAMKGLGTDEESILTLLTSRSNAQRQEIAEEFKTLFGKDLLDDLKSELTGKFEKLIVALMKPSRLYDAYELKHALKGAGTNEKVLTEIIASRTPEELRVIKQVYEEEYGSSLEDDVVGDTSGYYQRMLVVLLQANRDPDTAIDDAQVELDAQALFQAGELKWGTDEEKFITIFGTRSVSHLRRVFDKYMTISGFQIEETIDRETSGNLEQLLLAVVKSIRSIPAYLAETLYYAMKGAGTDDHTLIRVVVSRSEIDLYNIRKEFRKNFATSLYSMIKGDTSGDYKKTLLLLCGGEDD
Method: A similar study was conducted to further evaluate the in vitro, intracellular interactions of delta PKC and annexin V. Cellular interactions of delta PKC/annexin V interaction in CHO cells were stabilized with a cross-linking agent, after stimulation with 10 nM PMA. The complexes formed with delta PKC were then immuno-precipitated and tested for the presence of annexin V. The SDS-PAGE gel is shown in FIG. 6A and a corresponding graph quantifying percent association of annexin V and delta PKC as a function of time is shown in FIG. 6B. […] The interaction is relatively short-lived, and the proteins disassociated after 1 minute of stimulation.
The effect of JTV-519, an activator of delta PKC, on the association of annexin V and delta PKC was also evaluated in this study. Cells were treated with JTV-519, and the association of annexin V and delta PKC was examined using the co-immunoprecipitation procedure described above. […] PMA caused the disassociation of the JTV-induced complex at 30 seconds, the time of maximal PMA-induced association. […] Whereas the cytosolic fraction of the cells contained a steady low level of the complex, the majority of the complex was found in the particulate fraction of the cells, and disappearance from the particulate fraction followed the same time-course as observed in whole cell lysates (compare FIG. 6D bottom panel with FIG. 6B).

[4] = test system: isolated rat hearts; assay: Ex vivo ischemia/reperfusion in isolated rat hearts; conditions: administered after ischemia during the initial 10 minutes of reperfusion
Method: The physiologic impact of disruption of the delta PKC-annexin V complex was evaluated in an ex vivo ischemia/reperfusion study using the annexin V peptide, TAT-AnxV, and its mutant, TAT-AnxV(R→E). As described in Example 7, isolated rat hearts were treated with TAT-AnxV or TAT-AnxV(R→E) for 10 minutes prior to induction of an ischemic episode. The ischemic episode lasted for 30 minutes, at which time flow to the heart was returned for 60 minutes (reperfusion). After the reperfusion period, cardiac effluent was collected and analyzed for creatine phosphokinase (CPK). The hearts were stained and visually inspected for live and dead tissue. Infarct size was measured by taking the average of the dead (white) tissue on both sides of the tissue slice.
A similar study was conducted, except rather than pretreating the isolated hearts with the annexin V peptide, the peptide was administered after the ischemic event and during the initial 10 minutes of the reperfusion period. Hearts were similarly treated with the mutant peptide, TAT-AnxV(R→E).
Rats were anesthetized and their hearts were rapidly removed and cannulated via the aorta for retrograde perfusion (Colbert, M. et al., J. Clin. Invest., 100:1958 (1997)). The hearts were left untreated, or were pretreated with the annexin V peptide, conjugated to TAT, (TAT-AnxV, SEQ ID NO:29) or with its mutant, TAT-AnxV(R→E) (SEQ ID NO:31), for 10 minutes prior to a 30 minutes of ischemia. Ischemia was induced by interrupting flow for 30 minutes and then reestablishing flow for 60 minutes (reperfusion). Cardiac effluent was collected for 15 minutes after reperfusion and assayed for creatine phosphokinase (CPK) using a Sigma kit. Hearts were stained with 2,3,5-triphenyltetrazolium chloride ([…]) to visualize live tissue (red) and dead tissue (white), and infarct size was measured by taking the average of the white area on both sides of the tissue slice (n=3, p<0.05). Results are shown in FIGS. 9A-9B and FIGS. 10A-10B.

[5] = target: delta PKC (Rattus norvegicus, UniProt P09215); assay: ELISA of annexin V peptide variants fused to alkaline phosphatase on immobilized delta PKC; type: binding; design: key to Binding: +++: Relative binding is shown in Table 1 by “+” and “−” indicators; ++: Relative binding is shown in Table 1 by “+” and “−” indicators; Relative binding is shown in Table 1 by “+” and “−” indicators; Relative binding is shown in Table 1 by “+” and “−” indicators; −−−: Relative binding is shown in Table 1 by “+” and “−” indicators; conditions: Table 1; for Binding: relative binding of peptide-alkaline phosphatase fusion to immobilized delta PKC
Sequence of delta PKC (P09215 with tags, fused parts or gaps with the stated changes limits assumed): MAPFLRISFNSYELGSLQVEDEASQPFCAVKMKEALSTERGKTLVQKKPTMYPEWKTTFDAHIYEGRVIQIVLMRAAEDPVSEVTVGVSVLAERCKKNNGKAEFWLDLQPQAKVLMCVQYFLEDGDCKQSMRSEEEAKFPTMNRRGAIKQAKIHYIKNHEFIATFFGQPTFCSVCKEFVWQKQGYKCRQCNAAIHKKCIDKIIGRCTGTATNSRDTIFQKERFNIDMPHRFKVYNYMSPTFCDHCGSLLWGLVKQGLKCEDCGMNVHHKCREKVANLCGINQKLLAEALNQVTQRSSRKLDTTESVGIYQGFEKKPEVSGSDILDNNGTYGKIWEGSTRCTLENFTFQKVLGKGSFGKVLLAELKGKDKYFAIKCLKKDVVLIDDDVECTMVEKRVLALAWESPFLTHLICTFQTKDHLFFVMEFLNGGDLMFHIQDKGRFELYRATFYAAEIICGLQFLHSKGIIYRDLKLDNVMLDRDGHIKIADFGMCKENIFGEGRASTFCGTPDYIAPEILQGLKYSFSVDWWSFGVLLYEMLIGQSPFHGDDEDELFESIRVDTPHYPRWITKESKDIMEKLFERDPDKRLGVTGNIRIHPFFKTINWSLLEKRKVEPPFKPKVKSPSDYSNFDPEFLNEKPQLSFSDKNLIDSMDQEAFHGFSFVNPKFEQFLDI
Method: Binding of the annexin V peptide (SEQ ID NO: 1) and of variants of the peptide to delta PKC was examined using an ELISA protocol, detailed in Example 6. Delta PKC (SEQ ID NO:3) was immobilized in the wells of a microtiter plate and then incubated with the annexin V peptide conjugated to alkaline phosphatase or with variants of the annexin V peptide, also conjugated to alkaline phosphatase.
Recombinant delta PKC protein (SEQ ID NO:3) was bound to a Falcon plate for 1 hour at room temperature in carbonate buffer pH 9.6. A 1:10-1:100 dilution of PKC enzyme from glycerol stock or 100 μg was prepared. β-mercaptoethanol at 1 μL/mL was added into the PKC. Each well contained approximately 100 μL of PKC; some wells without PKC were present to correct for non-specific binding.
Next, all wells were blocked with 200 μL of super block or 0.5% milk in carbonate buffer. Blocking was done twice, for 5 minutes each time.
Without washing the wells, 100 μL of a peptide fused to alkaline phosphatase protein (i.e., peptide-alkaline phosphatase fusion) was added to the wells, and incubated for 30 minutes at 37° C. The wells were then washed three times, for 2 minutes each time, with TBS/Tween (0.1%). The wells were allowed to develop overnight before reading absorbance at 405 nm.

[6] = cardiac myocytes stimulated with the agent, FIG. 5

T1 sequence (A0A8C2N0P5 1-676): as the sequence (A0A8C2N0P5 1-676) above
T1 sequence (G3I5A4 1-321): as the sequence (G3I5A4 1-321 partner) above

## O=CC[C@@H](O)[C@H](O)[C@H](O)CO [2-deoxyglucose]
[1]
  disassociation of the delta PKC-annexin V complex: substantial levels of the complex even after 5 minutes

## OO [H2O2, hydrogen peroxide]
[2]; [6]
  interaction of annexin V and delta PKC: stimulated delta PKC to a greater extent than exposure for 2 minutes

## CCCCCCCCCCCCCC(=O)O[C@@H]1[C@@H](C)[C@@]2(O)[C@@H](C=C(CO)C[C@]3(O)C(=O)C(C)=C[C@@H]23)[C@@H]2C(C)(C)[C@]12OC(C)=O [PMA, phorbol 12-myristate 13-acetate]
[2]; [6]
  interaction of annexin V and delta PKC: Annexin V interacts with delta PKC early after stimulation
[3]; 10 nM PMA, FIGS. 6A-6B
  time of stimulation after which annexin V and delta PKC disassociated: 1 min
  time to induction of annexin V and delta PKC interaction: ≤ 30 s
[3]; soluble versus particulate fraction, FIG. 6D
  cellular localization of the delta PKC-annexin V complex: maximum complex accumulation in the particulate fraction

## C=C1[C@@H](C)[C@H]2[C@H](Cc3ccccc3)NC(=O)[C@]23[C@H](OC(C)=O)/C=C/[C@@](C)(O)C(=O)[C@@H](C)C/C=C/[C@H]3[C@@H]1O [cytochalasin D]
[1]
  disassociation of the delta PKC-annexin V complex: did not affect the profile of disassociation

## COC(=O)Nc1nc2ccc(C(=O)c3cccs3)cc2[nH]1 [nocodazole]
[1]
  disassociation of the delta PKC-annexin V complex: substantial levels of the complex even after 5 minutes

## LQANRDPD (listed as Homo sapiens) [SEQ ID NO:1, peptide from annexin V, residues 157-164]
[4]; FIG. 10A
  infarct size: no cardioprotective effect was observed
[4]; FIG. 10B
  creatine phosphokinase (CPK) released: does not confer a cardioprotective effect

## MAAAEDP (variant of SEQ ID NO1) [SEQ ID NO:17]
[5]
  Binding: −

## MEAAEDP (variant of SEQ ID NO1) [SEQ ID NO:15]
[5]
  binding to delta PKC: bind to delta PKC
  Binding: +

## MQAARDP (variant of SEQ ID NO1) [SEQ ID NO:12]
[5]
  binding to delta PKC: bind to delta PKC
  Binding: +++

## MRAAADP (variant of SEQ ID NO1) [SEQ ID NO:16]
[5]
  Binding: −−−

## MRAAEDP (variant of SEQ ID NO1) [SEQ ID NO:18]
[5]
  Binding: ++

## MRAAENP (variant of SEQ ID NO1) [SEQ ID NO:13]
[5]
  binding to delta PKC: bind to delta PKC
  Binding: +++

## MRAAQDP (variant of SEQ ID NO1) [SEQ ID NO:14]
[5]
  binding to delta PKC: bind to delta PKC
  Binding: ++

## delta V1-1 peptide: amino acid sequence from the first variable region of delta PKC (residues 8-17); peptide inhibitor of delta PKC (SFNSYELGS; listed as Rattus norvegicus)
[2]; cardiac myocytes pre-treated with the peptide for 20 minutes, then JTV-519 for 20 minutes, FIG. 5 Lane 10
  interaction of annexin V and delta PKC: blocked
